Reference: article PMC7269643 (Science Advances, 2020)

Molecular target: the molecule itself
Test: AUC

B1: VapB22 antitoxin (Rv2830c) from Mycobacterium tuberculosis, expressed alone from pET28b (natural protein)
chain: MTATEVKAKILSLLDEVAQGEEIEITKHGRTVARLVAATGPHALKGRFSGVAMAAADDDELFTTGVSWNVS
  stoichiometry N: 2
